Measured values taken from the supplement of paper PMC9732359.
± gives the uncertainty stated by the source.

Test: protein stability index of a GFP-peptide fusion (yeast GPS) (PSI 1-4); higher = more stable; sorted into four equal gates, so the index is relative within each strain
How it was run: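 Tiled 17-residue peptides from yeast proteins were fused downstream of GFP on a plasmid that also expresses Cherry, and the pooled library was carried in yeast. Mid-log cultures grown in leucine-free medium were sorted into four equal gates by GFP/Cherry fluorescence ratio. Plasmids from each gate were PCR-amplified and Illumina-sequenced, and reads were assigned to strains by barcodes. Each peptide's protein stability index is the sum, over gates, of the gate's read frequency multiplied by its gate number.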

Sequence | protein stability index (doa10∆) | protein stability index (pdr5∆) | protein stability index (ubr1∆) | protein stability index (san1∆)
LIQLQNIFKAEMDSVSK [CSN9] | 2.55 ± 0.08 | 2.54 ± 0.14 | 2.81 ± 0.13 | –
LISIISSVIQNYDIITA [YML103C/NUP188] | 1.81 ± 0.083 | 1.42 ± 0.1 | 1.3 ± 0.2 | –
QGRRNSRNFSTRDEETT [SIR4] | 3.04 ± 0.064 | 3.11 ± 0.055 | 2.98 ± 0.041 | 3.12 ± 0.041
ESVELPLTHPELYEEMG [RPT2] | 2.63 ± 0.077 | 2.94 ± 0.074 | 2.74 ± 0.037 | 2.78 ± 0.07
QIRACKDLKHIIYYKFN [PRP8] | 1.72 ± 0.037 | 1.73 ± 0.037 | 1.59 ± 0.042 | 1.84 ± 0.056
FKKSKIDHINEESWEKV [SCL1] | 2.78 ± 0.062 | 3.05 ± 0.067 | 2.69 ± 0.039 | 2.84 ± 0.049
PRLSHLSLTAVPSFLRP [GRR1] | 2.09 ± 0.042 | 1.93 ± 0.062 | 2.18 ± 0.045 | 1.79 ± 0.074
TGAPPYYYNTKIYKLEN [YMR129W/POM152] | 2.8 ± 0.063 | 2.72 ± 0.064 | 3.17 ± 0.041 | 2.5 ± 0.11
KKLSKKYNAFIASEVLI [RPL1A] | 1.45 ± 0.026 | 1.9 ± 0.025 | 1.67 ± 0.023 | 1.8 ± 0.052
VNIEPFNIDDEIKHGVF [LIN1] | 3.48 ± 0.15 | 3 ± 0.21 | 3.48 ± 0.077 | 3.45 ± 0.14
EGKSVDELITEGNEKLA [RPP2A] | – | 3.23 ± 0.16 | 3.45 ± 0.28 | 3.41 ± 0.074
MSKITSSQVREHVKELL [RPL1A] | 1.59 ± 0.092 | 2.09 ± 0.065 | 1.99 ± 0.051 | 2.45 ± 0.093
YDTTPLLDTNSLEENAM [SKI6] | 3.08 ± 0.12 | 2.96 ± 0.082 | 2.88 ± 0.078 | 2.97 ± 0.15
NDPSAEVRRAAMLNLIN [YCG1] | – | 3.42 ± 0.21 | – | 2.72 ± 0.26
LNYGVYLNGTLIGSIRF [RET1] | 1.43 ± 0.07 | 2.29 ± 0.097 | 2.71 ± 0.088 | 2.53 ± 0.088
LDDEKIFSQTTNSTYNP [YJL039C/NUP192] | 2.78 ± 0.061 | 2.85 ± 0.053 | 3.08 ± 0.045 | 2.91 ± 0.062
NVTIAQGGVLPNIHQNL [HTA1] | 1.65 ± 0.05 | 1.48 ± 0.043 | 1.46 ± 0.034 | 1.36 ± 0.066
NKKSEENEMIKPMNKGQ [SWP82] | 3.09 ± 0.18 | 3.41 ± 0.095 | 3.39 ± 0.26 | 3.39 ± 0.067
EYINNCKKNTKKCLKLA [POP4] | 2.82 ± 0.13 | 3.1 ± 0.13 | 2.78 ± 0.14 | 2.99 ± 0.077
NPIHVSRHFASYANLPG [FAS1] | 2.23 ± 0.059 | 2.36 ± 0.05 | 2.11 ± 0.038 | 1.94 ± 0.081
LTGTVVSTKMHRTIVIR [RPS11A] | 2.06 ± 0.063 | 2.25 ± 0.046 | 1.87 ± 0.037 | 2.14 ± 0.08
SVSGSPRPSYSSRPNVN [YMR129W/POM152] | 2.8 ± 0.091 | 2.72 ± 0.085 | 2.77 ± 0.081 | 2.45 ± 0.066
EFIQDSAARGLSLVYEI [ECM29] | – | – | 3.64 ± 0.12 | –
ENLFSKEEVCQGMEGTV [YMR129W/POM152] | 2.5 ± 0.073 | 2.95 ± 0.073 | 2.65 ± 0.089 | 2.92 ± 0.054
ELPLEDFKAKYCDSMGR [RPB5] | 3.31 ± 0.13 | 3.29 ± 0.14 | 3.51 ± 0.12 | 3.74 ± 0.13
QKYTKEMIDSHIKEASE [SNF2] | 2.93 ± 0.06 | 2.88 ± 0.054 | 3.02 ± 0.037 | 2.94 ± 0.051

Sequence | protein stability index (doa10∆) | protein stability index (pdr5∆) | protein stability index (ubr1∆) | protein stability index (san1∆)
EYQSLMSLKDKLLIQID [SMC1] | 2.13 ± 0.077 | 2.62 ± 0.082 | 2.38 ± 0.092 | 2.41 ± 0.2
EHRIRVFFDKRIGQEVD [RPS6A] | 3.25 ± 0.14 | 3.09 ± 0.14 | 2.87 ± 0.2 | 2.6 ± 0.29
NQASTSKRVYKILSPTM [CDC53] | 2.58 ± 0.062 | 2.57 ± 0.05 | 2.59 ± 0.067 | 2.54 ± 0.051
RVHANLQCISQINQGVP [SNF11] | 1.49 ± 0.043 | 1.42 ± 0.043 | 1.89 ± 0.055 | 1.47 ± 0.067
CAACHSLDRVAWRTLVG [CYT1] | 1.29 ± 0.052 | 1.32 ± 0.047 | 1.26 ± 0.042 | 1.34 ± 0.1
STRASTVPNLPTTMVTN [ISW2] | 1.92 ± 0.055 | 2.38 ± 0.056 | 2.38 ± 0.047 | 2.35 ± 0.058
KAPEAEQVLSAAATFPI [RPL13A] | 2.97 ± 0.071 | 2.76 ± 0.075 | 2.81 ± 0.04 | 2.96 ± 0.078
QENGTIFRGSLIGCIPY [YDL088C/ASM4] | 2.59 ± 0.052 | 2.57 ± 0.052 | 2.5 ± 0.038 | 2.48 ± 0.061
ETVFNYRLMIKRLNFSF [GRR1] | 1.84 ± 0.099 | 1.3 ± 0.068 | 1.31 ± 0.074 | 1.27 ± 0.12
ALDYLIPPPMPKNQQYR [MED7] | 2.53 ± 0.08 | 2.58 ± 0.1 | 2.6 ± 0.078 | 2.5 ± 0.096
EELRDLYQTYHVLVGDL [FAS1] | 2.26 ± 0.071 | 2.54 ± 0.054 | 2.38 ± 0.049 | 2.22 ± 0.059
RYISTLTLYLFQDYLTQ [IRR1] | 2.14 ± 0.2 | 1.76 ± 0.08 | 3.38 ± 0.27 | 3.14 ± 0.24
QTPAEKHAFMGTLKKDL [RPL3] | 3.08 ± 0.17 | 3.21 ± 0.062 | 2.96 ± 0.093 | 2.96 ± 0.11
YYQRLRHMVDDKIHARA [RPB2] | – | 2.84 ± 0.28 | 2.77 ± 0.15 | 3.12 ± 0.12
AAAYSHELPRYGITHGL [RPL5] | 2.64 ± 0.081 | 2.93 ± 0.064 | 2.96 ± 0.074 | 2.98 ± 0.052
VVFRDPYKYRLREEIFI [RPL2A] | 2.47 ± 0.12 | 2.66 ± 0.098 | 2.81 ± 0.087 | 2.01 ± 0.088
VIDIGASGCNVTPIIDG [ARP7] | 2.67 ± 0.088 | 3.03 ± 0.084 | 3.02 ± 0.05 | 2.93 ± 0.071
TGQNFLTSNISSLVRSC [REC8] | 3.21 ± 0.12 | 2.78 ± 0.08 | 2.96 ± 0.091 | 2.54 ± 0.099
LSRAEYDSDSDSSVEDS [LIN1] | 3.14 ± 0.17 | 2.96 ± 0.16 | 3.16 ± 0.084 | 2.87 ± 0.085
KQFDSIFNSNKAKIIPG [SIR4] | 2.32 ± 0.046 | 2.33 ± 0.047 | 2.65 ± 0.041 | 2.69 ± 0.064
QLKHTKLALAENDTNMN [SMC4] | 3.13 ± 0.079 | 3.12 ± 0.097 | 3.17 ± 0.048 | 3.25 ± 0.07
ERYSDKYLKKRKIGISI [RPC31] | 1.61 ± 0.11 | 2.39 ± 0.23 | 2.44 ± 0.21 | –
TGNGTTTTSNTSGTNIA [YOR098C/NUP1] | 2.96 ± 0.045 | 2.69 ± 0.047 | 2.41 ± 0.035 | 2.46 ± 0.056
SAVKPRPLKLERGFACI [FAS1] | 2.16 ± 0.092 | 2.36 ± 0.064 | 2.42 ± 0.071 | 2.06 ± 0.082
QISLNRLIDSMKQYSYL [RRI1] | 2.43 ± 0.23 | 2.29 ± 0.16 | 3.11 ± 0.12 | 2.48 ± 0.17
INSIDTTESSDLKEGLQ [GRR1] | 2.54 ± 0.062 | 2.6 ± 0.046 | 3.05 ± 0.032 | 3.18 ± 0.037
